Measurements from the nanobody polyreactivity screen of Harvey et al. (2022).

test: yeast display, Sf9 membrane polyspecificity reagent, FACS + sequencing; frameworks hold sequencing errors
Outline: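 Galactose-induced (36–48 hours) yeast carrying a synthetic nanobody display library were exposed to 10% biotinylated, detergent-solubilized Sf9 membrane reagent at 4 °C for 1 hour. FACS followed streptavidin microbead enrichment, using low and high (top ~1%) gates for expression (anti-HA) and reagent binding (streptavidin). Colony PCR, MiSeq 2 × 250 sequencing and CDR-length filtering followed. Labels for polyreactivity reflect the gate of origin.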

Sequence	polyreactivity (PSR sort gate)
QVQLVESGGGLVQAGGSLRLSCAASGSIFTRYAMGWYRQAPGKERELVAAISRSDGGTNYADSVKGRFTISRDNAKNTVYLQMNSLKPEDTAVYYCAKDWYYYYPYDYWGQGTQVTVSS	low polyreactivity
QVQLVESGGGLVQAGRSLRLSCAPSGSTFKHNAMGWYRQAPGKERELVATITLRDGSTYYADSVKGRFTISRDNAKNTVYLQMNSLKPEDTAVYYCATYYSAINYGWSKTILYDYWGQGTQVTVSS	low polyreactivity
QVHLVDTGGGLVKAGGSLRLSSAASGSTFEYYSMGWYRQEPGKERQLVPSISSGGSTNYADSVKGRFTISRDNAKNTVYLQMNSLKPEDTAVYYCAAEFAVSFYWSWLGQDYNFWGLGTQVTVSS	high polyreactivity
QVQLVESGGGLVQAGGSLRLSCAASGRIVPYAMGWYRQAPGKERELVARINFNGGSTYYADSVKGRFTISRDNAKNTVYLQMNSLKPEDTAVYDCAARVYRYRYSKYDYWGQGTQVTVSS	high polyreactivity
QVQLVESGGGLVQAGGSLRLSCAASVSTFQGYSMGWYRQAPGKERELVAAITTDGDSTYYADSVKGRFTISRDNAKNTVYLQMNSLKPEDTAVYYCAADQDGRWEGSSDPGDSWGQGTQVTVSS	low polyreactivity
QLQLVESGGGLVQAGGSLRLSCAASGRTFQPYAMGWYRQAPGKERELVAAITSIGGSTFYADSVKGRFTISRDNAKNTVYLQMNSLKPEDTAVYYCAADPYTLYWYYWYGTSGFDYWGQGTQVTVSS	low polyreactivity
QVQLVESGGGLVQAGGSLRLSCAASGRIFDANAMGWYRQAPGKERELVAAITYSGGRTYYADSVKGRFTISRDNAKNTVYLQMNSLKPVDTAVYYCAKRYAYIYDSWGQGTQVTVSS	low polyreactivity
QVQLVESGGGLVQAGGSLRLSCAASGSTFTKYDMGWYRQAPGKERELVAAIRSGGDTNYADSVKGRFTISRDNAKNTVYLQMNSLKPEDTAVYYCAAERGPTNHTSYPWYEYHYWGQGTQVTVSS	low polyreactivity
QVQLVESGGGLVQAGGSLRLICAASGFIFITNAMGWSRQAPGKERELVAAITSSDGNTYYADSVKGRFTISRDNAKNTVYLQMNSLKPEDTAVYYCADDARTKSYVRLYDYWGQGTQVTVSS	low polyreactivity
QVQLVESGGGLVQAGGSLRLSCAASGRTFDHNAMGWYRQAPGKERELVAAITSRGGSTYYADSVKGRFTISRDNAKNTVYLQMNSLKPEDTAVYYCNRYKSSSYIRGDYWGQGTQVTVSS	high polyreactivity
QVQLVESGGGLVQAGGSLRLSCAASGRTFDRNAMGWYRQAPGKERELVAAITSRGGRTYYADSVKGRFTISRDNAKNTVYLQMNSLKPEDTAVYYCAADLFSSRVRSNFDYWGQGTQVTVSS	high polyreactivity
QVQLVESWAGLVQAGGSLRLSCAASGIIFHFNDMGWYRQAPGKERELVAAITSGGSTNYADSVKARFTISRDNAKNNVYLQMNSLKPEDTAVYYCAARRGLRLFAYSHGYWGQGSQVTVSS	low polyreactivity
QVQLVESGGGLVQAGGSLRLSCAASGGTIGYNAMGWYRQAPGKERELVAAISWSGGTTYYADSVKGRFTISRDNAKNTVYLQMNSLKPEDTAVYYCNVYSRGRDDWGQGTQVTVSS	high polyreactivity
QVQLVETGGGLVQAGGSLRLSCAASGRIFGYYTMGWYRPAPGKERELVADSSGGNTSYADSVKGRFTISRDNAKNTVYLQMNSLKPEDTAVYYCAKDLPGAWRGDDYWGQGTLVTVSS	low polyreactivity
QVQLVESGGGIVQAGGSLRLSCAASGRTFKSYAMGWYRQAPGKERELVAAISRSGDRTYYADSVKGRFTISRDNAKNTVYLQMNSLKREDTAVYYCNARAVTGDRSDDYWGQGTHVTVSS	high polyreactivity
QVQLVESGGGLVQAGRSLRLSCAASGLTFSLYAMGWSRQAPGKERELVAANSWTGGSTYYADSVKGRFTISRDNAKNTVYLQMNSLKPEDTAVYYCNARYTLFARYGYDYWGQGTQVTVSS	low polyreactivity
QVQLVESGGGLLQAGGSLRLSCADSGRTFGGYSMGWYRQATGKERELVAAISKRSGSTYYADSVKGRFTISRVNAKNTVYLQMNSLKPEDTAVYYCNKVWFQRSVQPVEYDYWGQGTQVTVSS	high polyreactivity
QVQLVESGGGLVQAGGILRLSCAASGNIFPLYAMGWYRQAPGKERELVAAITWSTTSTYYADSVKGRFTISRDNAKNTVYLQMNSLKPEDTAVYYCAAGAYRRNKSDYYYWGQGTQVTVSS	low polyreactivity
QVQLVESGGGLVQAGGSLRLSCAASGSIFDDYAMGWYRQAPGKERELVAAMSWSGGRTYYADSVKGRFTISRDYAKNTVYLQMNSLNPEDTAVYYCAATTGVRSRRYYYWGQGTLVTVSS	low polyreactivity
QVQLVESGGGLVQAGGSLRLTCAASGSTLSTYVMGWYRQAPGKERELVAAITRRGGITYYADSVKGRFTISRDNAKNTVYLQMNSLKPEDTAVYYCAATGVRSKRLASQWKLYYWGQGTQVTVSS	high polyreactivity
QVQLVESGGGLVQAGGSLRLRCAASGFIFWMNAMGWYRQAPGKERELVAAISIGGRTNYADSVKGRFTISRDNSKNTVYLQMNSLKPEDTAVYYCNKDYRSVYKGGGFDYWGQGTQVTVST	low polyreactivity
QVQLVESGGGLVQAGGSLRLSCAASGRIFGAYAMGWYRQATGKERELVAAIRWSGARTYYADSVKGRFTISRDNAKNTVYLQMNSLKPEDTAVYYCATRQAYRPLKFDYWGQGTQVTVSS	high polyreactivity

Sequence	polyreactivity (PSR sort gate)
QVQLVESGGGLVQAGGSLRLSCAASGYTFYWNAMGWYRQAPGKEREFVASFSGTSTYYADSVKGRFTISRDNAKNTVYLQMNSLKREDTAVYYCNARLTLGPRKYEYWGPGTQVTVSS	low polyreactivity
QVHLVESGGGLVQAGGSLRLSCAASGSTFVNYTMGWYIQAPGKERELVAITIGAGRTYYADSVKGRFTISRDNAKNTVYLPMNSLKPEDTAVYYCAVRLYANSGRFDYWGQGTQVTVSS	low polyreactivity
QVQLVESGGGLVQAGGSLRLICAASGSIFYHNGMGWYRQAPGKERELVAGISSTGSTYYADSVKGRVTLSRDNAKNTVYLQMNSLKPEDTAVYYCATDFGDIGDDAHSLGYDYWGQGTQVTVSS	low polyreactivity
QVQHVESGGGLVHAGGSLRLSCAASGSTFRPYPRGWSRQAPGKERELVAAIRKIGGRTYYADSVKGRFTISRDNAKNTVYLQMNSLKPEDTAVYYCNKRIGGGVHAYNYWGQGTQVTVSS	low polyreactivity
QVQLVESGGGLVQAGGSLRLSCAASGSTLPTNAMGWYRQAPGKEREFVAAISDNGGSTYYADSVKGRFTISRDNAKNTVYLQMNSLKPEDTAVYYCAADWDESYSYRRYGHYDYWGQGTQVTVSS	low polyreactivity
QVQIVDSGGGLVQAGGSLSLSCAASGSTIYRYAMGWYRQAPGKERELVAAITSAGSTNYADSVKGRFTISRDNAKNTVYLQMNSLKPEDTAVYYCAADHGRPYFSYDYWGQGTQVTVSS	low polyreactivity
QVQLVESGGGLVQAGGSLRLSCAASGIIYYLYAMGWYRHAPGKERELVATISRRGGSTYYADSVKGRFTISRDNAKNTVYLQMNSLKPEDTAVYYCATGHYSVGRSFSSGSYEYWGQGTQVTVSS	high polyreactivity
QVQLVESGGGLVQAGGSLRLSCAASGRTLFSNAMGWYRQAPGKERELVASITSGDSTYYADSVKGRFTISRDNAKNTVYLQMNSLKPEDTSVYYCAADPSIVDGEYGYWGQGTQVTVSS	low polyreactivity
QVQLVESGGGLVQAGGSLRLSCAASGFIFLKYAMGWYRQAPGKERELVASITSTGGSTYYADSVKGRFTISRDNAKNTVYLQMNSQKPEDTAVYYCARDTVPSSDPWYYAWGGFEFDYWGQGTQVTVSS	low polyreactivity
QVHLVESGGGLVQAGGSLRLSCAASGRIYPYPMGWYRQAPGKERELVAAITSRGGTTYYADSVKGRFTISRDNAKNTDYVQMNSLKPEDTAVYYCNKRPWWWGGDDYWGQGTQVTVSS	low polyreactivity
QVQLVESGGGLVQAGGSLRLSCAASGRNFVNYAMGWYRQAPGKERELVAVISRSGGGTNYADSVKGRYTISRDNAKNTVYLQMNSLKPEDTAVYYCAASRKYGYGYWGQGTQVTVSS	high polyreactivity
QVQLVESGGGLVQAGRSLRLSCAASGRIFIWYRMGWYRQAPGKERELVSAITRRGGSTYYADSVKGRFTISRDNAKNTVYLQMNSLKPVDTAVYYCNADAIVSPYRLWTVTYSYWGQGTQVSVSS	low polyreactivity
QVQLQESGGGLVKAGGSLRLSCAASGNISPRDAMGWYRQAPGEERDLVASNAYSAITYYADGVKGRYSISRDNAKNTVYLQMNSLKPEDTEVYYCAVYQFTYPVFPAYWGQGTQVSVSS	low polyreactivity
QVQLVESGGGLVQAGGSLRLSCAASGIIFLGYARGWYRQAPGKERELVADIYSGVRTYYADSVKGRFTISRDNAKNTVYLQMNSLKPEDTAVYYCNATWTPYSSKQYYYWGQGTQVTVSS	low polyreactivity
QVQLVESGGGLVQEGGSLRLSCAASGSIFGGYALGWYRQAPGKERELVAAITWRGGRTYYADSVKGRFTISRDNAKNTVYLQMNSMKPEDTAVYYCNAVGSYRLYDYWGQGTQVTVSS	high polyreactivity
QVQLVESGGGLVQAGGSLRLSSAASGIIFFFYAMGWYRQAPGKERELVAVITGSGDSTFYADSVKGRFTISRDNAKNTVYLQMNSLKPEDTAVYYCNARQVSGGYYYWGQGTQVTVSS	low polyreactivity
QVQLVESRGVLVQAGGSLRLSCAASGSTFTGYAMGWYRQAPGKERELVAGITGSGGSTYYADSVMGRFTISRDNAKITVYFQMNSLKPVDTAVYYCAAACWYHYVWLDYFWGQGTQVTVSS	low polyreactivity
QVQLVESGGGLVQAGGSLRLSCAASGSIFTFYAMGWYRQAPGKERELVAAISYGGGITYYADSVKGRFTISRDNAKISVYLQMNSLIPEDSAVYYCAADDGYYNLYFDYDFWGQGTQLTVSS	low polyreactivity
QVQLVESGGGLVQAGGSLRLSCAASVRIFWYNAMGWYRQAPGKERELVATISSSGSTNYADSVKGRFTISRDNAKNTVYLQMNSLKPEDTAVYYGAPGKTGFRYGGGDSTQEYWGQGTQVTVSS	low polyreactivity
QVQLVESGGGLVQAGGSLRLSCAASGGILVGYAMGRYRQAPGKERELVAANNYSGGSTNYADSVKGRFTISRDNAKYSVYLQMNSLKPEDTAVYFCAARSTARYGYWGQGTQVTVSS	low polyreactivity
QVQLVESGGGLVQAGGSLRLSCAASGRTFRYYVMGWYRPAPGKERELVASITSNGDSTYYADSVKGRFTISRDNAKNTVFLQWKSLKPEDTAVDYCAVRWRDYRGSYRGFEYWGQGSQVTVSS	high polyreactivity
